Assay [1] concerns the target T1, B-Raf kinase, P15056.
T1 chain: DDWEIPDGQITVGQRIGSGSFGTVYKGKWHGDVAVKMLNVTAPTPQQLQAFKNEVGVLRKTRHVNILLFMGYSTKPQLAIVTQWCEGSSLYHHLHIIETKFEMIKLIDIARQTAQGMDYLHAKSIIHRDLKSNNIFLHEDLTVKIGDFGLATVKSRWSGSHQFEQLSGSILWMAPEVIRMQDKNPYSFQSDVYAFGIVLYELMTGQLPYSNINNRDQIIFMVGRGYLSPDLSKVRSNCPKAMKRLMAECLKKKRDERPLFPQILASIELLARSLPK
Kind of assay: intrinsic fluorescence titration (ITF) of B-Raf in solution.

Assay [2] addresses T1, B-Raf kinase, P15056. Description: binding affinity with BRAF, Table 2 (method not given; the Methods describe fluorescence titration).
Assay [3] has as its target T1, B-Raf kinase, P15056. Kind of assay: binding affinity, Table 3 (method not given; the Methods describe fluorescence titration).
The target of assay [4] is T1, B-Raf kinase, P15056. Kind of assay: Kd for the B-Raf dimer interface (FIG. 1), fluorescence titration.
The target in assay [5] is T1, B-Raf kinase, P15056. Description: ITC. In general terms: Isothermal titration calorimetry measures the heat released or taken up as one component is titrated into another.
For assay [6], the target named is T1, B-Raf kinase, P15056. Kind of assay: intrinsic tryptophan fluorescence (ITF), column head 'Kd (ITF) (µM)'.

Where no end group is shown, it is not given here. [ ]: non-standard residue; d: D form. code O = not defined here; Dab = NCC[C@H](N)C(=O)O

The Kd is the free concentration of one partner at which half of the binding sites on the other are occupied at equilibrium, for simple one-to-one binding.

Take GVLRKTRHVNILLFMG (modifications not checked) [SEQ ID NO: 15 (503-518, …)]: the Kd with B-Raf kinase, P15056 [1] was found to be 1880 nM. The same measure, in the same setting: the result for GVLRKTRHANILLFMGYST (modifications not checked) [SEQ ID NO: 10 (503-521 V511A, …)] reads 4750 nM.

As to VLRKKRHVNELLFMG (modifications not checked) [SEQ ID NO: 53 (…)], the Kd in the assay with B-Raf kinase, P15056 [2] amounted to 1890 nM; with B-Raf kinase, P15056 [3] it was 1890 nM. For GVLRKTRHVNILLFMGYST (modifications not checked) [SEQ ID NO: 1 (B-Raf residues 503-521, …)], the equilibrium dissociation constant (Kd) in the assay with B-Raf kinase, P15056 [4] turned out to be 3840 nM. This lies in the single-digit micromolar range. In the assay with B-Raf kinase, P15056 [5], GVLRKARHVNILLFMGYST (modifications not checked) [SEQ ID NO: 8] came in with a ΔH of -8.32 kcal/mol. GVLLKTRHVNILLFMGYST (modifications not checked) [SEQ ID NO: 6] returned a Kd with B-Raf kinase, P15056 [4] of 540 nM. Regarding LRKKRHVNELLFMG (modifications not checked) [SEQ ID NO: 37 (cyclo 508-513 T508K, I513E, …)], in the assay with B-Raf kinase, P15056 [1], the dissociation constant (Kd) is 1890 nM. As to GVLEKTRHVNILLFMGYST (modifications not checked) [SEQ ID NO: 5 (503-521 R506E, …)], the dissociation constant (Kd) with B-Raf kinase, P15056 [1] was 1090 nM. In the assay with B-Raf kinase, P15056 [3], KRHVAELLFMG (modifications not checked) [SEQ ID NO: 47 (…)] displayed a Kd of 590 nM. As for VLRK[code O]RHVAELIFMG (reading uncertain) [SEQ ID NO: 58 (VLRKO…)], in the assay with B-Raf kinase, P15056 [3], the Kd is 170 nM. For KRHPAELLFMG (modifications not checked) [SEQ ID NO: 61 (…)], the Kd in the assay with B-Raf kinase, P15056 [3] came out at 160 nM.

In the case of VCRKTRHVNILLCM (modifications not checked) [SEQ ID NO: 33 (…)], the dissociation constant (Kd) with B-Raf kinase, P15056 [2] was found to be 360 nM. This lies in the sub-micromolar range. Turning to VLRKTRHVNILLAMG (modifications not checked) [SEQ ID NO: 29 (504-518 F516A, …)], the dissociation constant (Kd) in the assay with B-Raf kinase, P15056 [1] was determined as 570 nM. In the assay with B-Raf kinase, P15056 [1], GVLRKTRHVNILIFMGYST (modifications not checked) [SEQ ID NO: 12 (503-521 L515I, …)] had a Kd of 4100 nM. For VLRKTRHVNIALFMG (modifications not checked) [SEQ ID NO: 28 (504-518 L514A, …)], in the assay with B-Raf kinase, P15056 [1], the dissociation constant (Kd) is 1020 nM.

VLRKTRHVNALLFMG (modifications not checked) [SEQ ID NO: 27 (504-518 I513A, …)] displayed a dissociation constant (Kd) with B-Raf kinase, P15056 [1] of 2690 nM. Against the preceding molecule, the Kd is about 2.6-fold higher. As to GVARKTRHVNILLFMGYST (modifications not checked) [SEQ ID NO: 4 (503-521 L505A, …)], in the assay with B-Raf kinase, P15056 [1], the Kd stood at 3890 nM. Regarding GRINKGRHTFLLVVMTYSL (modifications not checked) [SEQ ID NO: 3 (scrambled, …)], the Kd with B-Raf kinase, P15056 [1] was determined as 2960 nM. Regarding GVLRKTRHVNIALFMGYST (modifications not checked) [SEQ ID NO: 11 (503-521 L514A, …)], in the assay with B-Raf kinase, P15056 [1], the Kd was 9800 nM. Turning to VARKTRHVNILLFMG (modifications not checked) [SEQ ID NO: 21 (504-518 L505A, …)], the Kd in the assay with B-Raf kinase, P15056 [1] worked out at 450 nM. For the molecule V[Dab]RKKRHVNELLDMG [SEQ ID NO: 54 (VDab…)], the equilibrium dissociation constant (Kd) with B-Raf kinase, P15056 [2] turned out to be 370 nM.

Molecule VLRKTRHVNILLFM (modifications not checked) [SEQ ID NO: 16 (…)] gave a Kd with B-Raf kinase, P15056 [2] of 5750 nM. Consider VLRKTRHVNILLFAG (modifications not checked) [SEQ ID NO: 30 (504-518 M517A, …)], for which, in the assay with B-Raf kinase, P15056 [1], the dissociation constant (Kd) was 540 nM. Consider LRKTRHVNILLFMG (modifications not checked) [SEQ ID NO: 31 (…)], for which the equilibrium dissociation constant (Kd) was determined as 190 nM in the assay with B-Raf kinase, P15056 [1] and 1880 nM with B-Raf kinase, P15056 [3].

The molecule VLRKTAHVNILLFMG (modifications not checked) [SEQ ID NO: 24 (504-518 R509A, …)] displayed a Kd with B-Raf kinase, P15056 [1] of 2400 nM. Consider VLRKKRHVAELLFMG (modifications not checked) [SEQ ID NO: 60 (VLRKKMe…)], for which the dissociation constant (Kd) in the assay with B-Raf kinase, P15056 [3] was 39 nM.

TRHVNILLFMG (modifications not checked) [SEQ ID NO: 45 (…) with N-Cap N1] returned a dissociation constant (Kd) with B-Raf kinase, P15056 [6] of 50 nM. In turn, VLAKTRHVNILLFMG (modifications not checked) [SEQ ID NO: 22 (504-518 R506A, …)] yielded a Kd with B-Raf kinase, P15056 [1] of 360 nM. In turn, LLKTRHVNILLFMG (modifications not checked) [SEQ ID NO: 32 (505-518 R506L, …)] yielded a dissociation constant Kd with B-Raf kinase, P15056 [1] of 550 nM.

In the assay with B-Raf kinase, P15056 [6], TRHVNILLFMG (modifications not checked) [SEQ ID NO: 45 (…) with N-Cap N2] registered a Kd of 84 nM. Molecule VLRKTRAVNILLFMG (modifications not checked) [SEQ ID NO: 25 (504-518 H510A, …)] registered an equilibrium dissociation constant (Kd) with B-Raf kinase, P15056 [1] of 2700 nM. The same measure, in the same setting: the result for GVLRKDRHVNILLFMGYST (modifications not checked) [SEQ ID NO: 7 (503-521 T508D, …)] reads 2200 nM.

Values taken from patent US20220127585A1.
